Where a chain is given by its changes, count along the chain named. One block for each binder: values may come before it.
What was measured:
[1] = target: T1, human CD3e/g antigen (ACRO, catalog number CDG-H52W5) (human, UniProt P07766 23-126; P09693 23-116); test: SPR (Biacore 8K), antibody captured via anti-human Fc
T1 construct: Bought reagent used as the Biacore analyte; also called hCD3e/g
Experimental: The equilibrium dissociation constant of binding of CD3 antibodies to human CD3e/g antigen (purchased from ACRO, catalog number CDG-H52W5) was determined by kinetic binding method using Biacore 8K (GE) system. Through the capture method, the carboxylated dextran surface of CM5 chip was first activated with NHS (N-hydroxysuccinimide) and EDC (1-(3-dimethylaminopropyl)-3-ethylcarbodiimide hydrochloride), and then added with an anti-human IgG (Fc) antibody, the free amino group of which could form an amide bond with the activated carboxyl group, thereby being fixed on the chip surface. The anti-human IgG (Fc) antibody could bind to the Fc end of CD3 antibodies to capture the antibodies, and then a series of concentrations of antigen were added to obtain the binding and dissociation curves of antibody and antigen, and the corresponding kinetic constants were calculated by Biacore Evaluation software, as shown in the table below.

CD3 on Jurkat cells [2] = target: T2, CD3 on Jurkat cells (human); test: FACS on Jurkat cells, Alexa 488 secondary antibody, MFI [b]
T2 construct: native, on the surface of Jurkat cells; The sheets print only 'Jurkat'; also called human CD3; TCR/CD3 complex on the human T cell line Jurkat
Experimental: (§1) Jurkat cells were amplificatorily cultured to 3×10⁶/ml in a T-175 cell culture flask, the culture medium was removed by centrifugation, and the cells were washed twice with PBS buffer (purchased from Invitrogen). After cell counting, the cells were diluted to 2×10⁶ cells/ml with PBS buffer, added with 1% BSA blocking solution, where the percentage was a mass percentage, incubated on ice for 30 minutes, and then washed twice with PBS buffer by centrifugation. The collected cells were suspended to 2×10⁶ cells/mL with FACS buffer (PBS+1% BSA, where the percentage was a mass percentage), and added to a 96-well FACS reaction plate at 100 μl per well, and samples of the purified CD3 antibodies obtained in Example 4 to be tested were added at 100 μl per well, and incubated at 4° C. for 2 hours. The plate was washed twice with FACS buffer by centrifugation, added with 100 μl per well of fluorescent (Alexa 488) labeled secondary antibody (purchased from Jackson), and incubated at 4° C. for 1 hour. After washing 3 times by centrifugation with FACS buffer, the cells were suspended with 100 μl of FACS buffer, and detected and analyzed using BD FACS LSRFortessa (purchased from BD). The results are shown in FIG. 5, where the IgG control is human IgG1 (hIgG).

[3] = target: T3, human CD3e/d protein (Sinobiological, CAT: CT038-H2508H-B) (human, UniProt P07766 23-126; P04234 22-105); test: ELISA, coated hCD3e/d
T3 construct: Bought reagent; also called hCD3e/d
Experimental: (§2) Human CD3e/g protein, cynomolgus monkey CD3e/g protein (sequences shown in Table 1) or human CD3e/d protein was diluted with PBS to a final concentration of 5.0 μg/mL, and then added with 100 μl per well to a 96-well ELISA plate. The plate was sealed with plastic film and incubated overnight at 4° C. The plate was washed twice with plate washing solution [PBS+0.01% (v/v) Tween 20] on the next day, and was added with blocking solution [PBS+0.01% (v/v) Tween 20+1% (w/w) BSA] to block at room temperature for 2 hours. The blocking solution was poured off, and 100 μl per well of the purified CD3e/g antibody obtained in Example 2 was added. After incubation at 37° C. for 2 hours, the plate was washed 3 times with plate washing solution [PBS+0.01% (v/v) Tween20]. After adding HRP (horseradish peroxidase) labeled secondary antibody (purchased from Sigma), the plate was incubated at 37° C. for 2 hours, washed 3 times with plate washing solution [PBS+0.01% (v/v) Tween 20]. After adding 100 μl per well of TMB substrate and incubating at room temperature for 30 minutes, 100 μl per well of stop solution (1.0N HCl) was added. […] FIG. 2 and Table 3 show the binding activities of CD3e/g antibodies to hCD3e/g as detected by ELISA, and FIG. 3 and Table 4 show the binding activities of CD3e/g antibodies to cyno CD3e/g as detected by ELISA, wherein the IgG control is mouse IgG, and the data in the tables are OD_{450 nm} values. Among them, HIT3a was purchased from BD pharmigen with a catalog number 555336; SP34 was purchased from BD pharmigen with a catalog number 551916. OKT3 was purchased from Biolegend.

[4] = target: T4, Cynomolgus monkey CD3e/g protein (cynomolgus monkey); test: ELISA, coated cyno CD3e/g
T4 construct: also called cyno CD3e/g; cCD3e/g
Experimental: as §2

CD3 on Jurkat cells [5] = target: T2, CD3 on Jurkat cells; test: FACS on Jurkat cells, Alexa 488 secondary antibody, MFI [a]
Experimental: as §1

B1: CAb007 (antibody, V domains shown)
VH: QVQLQQSGPELVKPGASVKISCKASGSTFTDNYIHWVKQRPGQGLEWIGWIYPGSVNIKYNEKFKDKATLTADTSSTTAYMQLSSLSSEDSAIYYCARDISRYYFDYWGQGTTLTVSS
VL: DIVMSQSPSSLAVSAGERVTMNCKSSQSLLNSRTRKNYLAWYQQKPGQSPKLLIYWASTRESGVPDRFTGSGSGTDFTLTISSVQAEDLAVYYCKQSFILRTFGGGTKLAIK
notes: Chimeric: mouse variable regions linked to human light and heavy constant regions; constant regions not specified
Kd [1]: 12100 pM
koff [1]: 0.00532 s⁻¹
kon [1]: 438000 M⁻¹ s⁻¹
EC50 (read off the curve) (CD3 on Jurkat cells [2]): ~100 pM

B4: mAb007 (antibody, V domains shown)
VH: B1 VH
VL: B1 VL
notes: Mouse hybridoma antibody; The variable regions are printed as CAb007 VH/VL
EC50 [3]: 17 pM
Emax (OD) [3]: 3.04 OD
OD450 nm at 0.00128 nM [3]: 0.26 OD450 nm
OD450 nm at 0.0064 nM [3]: 0.71 OD450 nm
OD450 nm at 0.032 nM [3]: 2.02 OD450 nm
OD450 nm at 0.16 nM [3]: 2.86 OD450 nm
OD450 nm at 0.8 nM [3]: 2.96 OD450 nm
OD450 nm at 4 nM [3]: 2.99 OD450 nm
OD450 nm at 20 nM [3]: 3.01 OD450 nm
OD450 nm at 100 nM [3]: 3.04 OD450 nm
EC50 [4]: 260 pM
OD450 nm at 0.000853 nM [4]: 0.0902 OD450 nm
OD450 nm at 0.0043 nM [4]: 0.128 OD450 nm
OD450 nm at 0.02 nM [4]: 0.22 OD450 nm
OD450 nm at 0.11 nM [4]: 0.73 OD450 nm
OD450 nm at 0.53 nM [4]: 2.7 OD450 nm
OD450 nm at 2.67 nM [4]: 3.45 OD450 nm
OD450 nm at 13.3 nM [4]: 3.47 OD450 nm
OD450 nm at 66.7 nM [4]: 3.49 OD450 nm

B5: mAb008 (antibody, V domains shown)
VH: QVQLQQSGAELARPGASVKMSCKTSGYTFTDYTVNWVKQRPGQGLEWIGYINPFNSYTKYNQKFKDKATLTADKSSSTAYMQLSSLTSEDSAVYFCANSVSTYWGQGTTLTVSS
VL: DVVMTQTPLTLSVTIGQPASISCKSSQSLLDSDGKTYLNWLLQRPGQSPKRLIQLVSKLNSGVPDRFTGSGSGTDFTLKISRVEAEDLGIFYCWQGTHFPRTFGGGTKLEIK
notes: Mouse hybridoma antibody
EC50 [3]: 41 pM
Emax (OD) [3]: 3.05 OD
OD450 nm at 0.00128 nM [3]: 0.16 OD450 nm
OD450 nm at 0.0064 nM [3]: 0.53 OD450 nm
OD450 nm at 0.032 nM [3]: 1.31 OD450 nm
OD450 nm at 0.16 nM [3]: 2.48 OD450 nm
OD450 nm at 0.8 nM [3]: 2.88 OD450 nm
OD450 nm at 4 nM [3]: 2.96 OD450 nm
OD450 nm at 20 nM [3]: 3 OD450 nm
OD450 nm at 100 nM [3]: 3.05 OD450 nm
EC50 [4]: 440 pM
OD450 nm at 0.000853 nM [4]: 0.0893 OD450 nm
OD450 nm at 0.0043 nM [4]: 0.111 OD450 nm
OD450 nm at 0.02 nM [4]: 0.16 OD450 nm
OD450 nm at 0.11 nM [4]: 0.48 OD450 nm
OD450 nm at 0.53 nM [4]: 2.03 OD450 nm
OD450 nm at 2.67 nM [4]: 3.32 OD450 nm
OD450 nm at 13.3 nM [4]: 3.48 OD450 nm
OD450 nm at 66.7 nM [4]: 3.42 OD450 nm

B6: mAb009 (antibody, V domains shown)
VH: B5 VH with A12T, T24A, V34I, N35H, N55S, S56D, M81I, S84N, F95Y, T102I
VL: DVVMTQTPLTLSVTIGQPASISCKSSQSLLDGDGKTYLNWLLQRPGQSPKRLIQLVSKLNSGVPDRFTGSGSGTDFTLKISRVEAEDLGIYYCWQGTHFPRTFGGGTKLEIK
notes: Mouse hybridoma antibody
EC50 [3]: 27 pM
Emax (OD) [3]: 3.03 OD
OD450 nm at 0.00128 nM [3]: 0.24 OD450 nm
OD450 nm at 0.0064 nM [3]: 0.66 OD450 nm
OD450 nm at 0.032 nM [3]: 1.67 OD450 nm
OD450 nm at 0.16 nM [3]: 2.64 OD450 nm
OD450 nm at 0.8 nM [3]: 2.85 OD450 nm
OD450 nm at 4 nM [3]: 2.97 OD450 nm
OD450 nm at 20 nM [3]: 3.02 OD450 nm
OD450 nm at 100 nM [3]: 3.03 OD450 nm
EC50 [4]: 320 pM
OD450 nm at 0.000853 nM [4]: 0.0755 OD450 nm
OD450 nm at 0.0043 nM [4]: 0.126 OD450 nm
OD450 nm at 0.02 nM [4]: 0.19 OD450 nm
OD450 nm at 0.11 nM [4]: 0.63 OD450 nm
OD450 nm at 0.53 nM [4]: 2.44 OD450 nm
OD450 nm at 2.67 nM [4]: 3.41 OD450 nm
OD450 nm at 13.3 nM [4]: 3.54 OD450 nm
OD450 nm at 66.7 nM [4]: 3.46 OD450 nm

Other lines, results leading:

EC50 [3]: 22 pM
Emax (OD) [3]: 3.05 OD
OD450 nm at 0.00128 nM [3]: 0.27 OD450 nm
OD450 nm at 0.0064 nM [3]: 0.72 OD450 nm
OD450 nm at 0.032 nM [3]: 1.83 OD450 nm
OD450 nm at 0.16 nM [3]: 2.72 OD450 nm
OD450 nm at 0.8 nM [3]: 2.96 OD450 nm
OD450 nm at 4 nM [3]: 2.99 OD450 nm
OD450 nm at 20 nM [3]: 3.05 OD450 nm
OD450 nm at 100 nM [3]: 3.02 OD450 nm
EC50 [4]: 330 pM
OD450 nm at 0.000853 nM [4]: 0.164 OD450 nm
OD450 nm at 0.0043 nM [4]: 0.152 OD450 nm
OD450 nm at 0.02 nM [4]: 0.17 OD450 nm
OD450 nm at 0.11 nM [4]: 0.64 OD450 nm
OD450 nm at 0.53 nM [4]: 2.43 OD450 nm
OD450 nm at 2.67 nM [4]: 3.45 OD450 nm
OD450 nm at 13.3 nM [4]: 3.5 OD450 nm
OD450 nm at 66.7 nM [4]: 3.49 OD450 nm
B2: mAb001 (antibody, V domains shown)
VH: QVQLQQSGPELVKPGASVKISCKASGYSFTNYYMHWVKQRPGQGLEWIGWTYPGNNNIKYNEKFKGKATLTADTSSSTAYMQLSSLTSEDSAVYYCARDGYGYYFFDYWGQGIILTVSS
VL: B1 VL with R18K, N22S, S32N, V91I, F98Y, I99T
notes: Mouse hybridoma antibody; The variable regions are printed as CAb001 VH/VL

Kd [1]: 23100 pM
koff [1]: 0.00616 s⁻¹
kon [1]: 267000 M⁻¹ s⁻¹
EC50 (read off the curve) (CD3 on Jurkat cells [5]): ~300 pM
B3: CAb001 (antibody, V domains shown)
VH: B2 VH
VL: B1 VL with R18K, N22S, S32N, V91I, F98Y, I99T
notes: as for B1
